According to the supplement of paper PMC11246515:
± gives the standard deviation of the averaged measurements.

Test: total protein half-life in vivo (active degradation + dilution); higher = more stable protein
[1] = E. coli NCM3722 delta-clpP delta-lon delta-hslV, growth: N-lim chemostat, doubling time 6 h
[2] = E. coli NCM3722 delta-clpP, growth: N-lim chemostat, doubling time 6 h
[3] = E. coli NCM3722 delta-hslV, growth: N-lim chemostat, doubling time 6 h
[4] = E. coli NCM3722 delta-lon, growth: N-lim chemostat, doubling time 6 h
[5] = E. coli NCM3722 delta-smpB, growth: N-lim chemostat, doubling time 6 h
[6] = wild type E. coli NCM3722, growth: C-lim chemostat, doubling time 3 h
[7] = wild type E. coli NCM3722, growth: C-lim chemostat, doubling time 6 h
[8] = wild type E. coli NCM3722, growth: C-lim chemostat, doubling time 12 h
[9] = wild type E. coli NCM3722, growth: N-lim chemostat, doubling time 6 h
[10] = wild type E. coli NCM3722, growth: N-lim chemostat, doubling time 12 h
[11] = wild type E. coli NCM3722, growth: P-lim chemostat, doubling time 6 h
[12] = wild type E. coli NCM3722, growth: P-lim chemostat, doubling time 12 h

| Sequence | total protein half-life in vivo [1] [h] | total protein half-life in vivo [2] [h] | total protein half-life in vivo [3] [h] | total protein half-life in vivo [4] [h] | total protein half-life in vivo [5] [h] | total protein half-life in vivo [6] [h] | total protein half-life in vivo [7] [h] | total protein half-life in vivo [8] [h] | total protein half-life in vivo [9] [h] | total protein half-life in vivo [10] [h] | total protein half-life in vivo [11] [h] | total protein half-life in vivo [12] [h] |
| --- | --- | --- | --- | --- | --- | --- | --- | --- | --- | --- | --- | --- |
| MPKRTDIKSILILGAGPIVIGQACEFDYSGAQACKALREEGYRVILVNSNPATIMTDPEMADATYIEPIHWEVVRKIIEKERPDAVLPTMGGQTALNCALELERQGVLEEFGVTMIGATADAIDKAEDRRRFDVAMKKIGLETARSGIAHTMEEALAVAADVGFPCIIRPSFTMGGSGGGIAYNREEFEEICARGLDLSPTKELLIDESLIGWKEYEMEVVRDKNDNCIIVCSIENFDAMGIHTGDSITVAPAQTLTDKEYQIMRNASMAVLREIGVETGGSNVQFAVNPKNGRLIVIEMNPRVSRSSALASKATGFPIAKVAAKLAVGYTLDELMNDITGGRTPASFEPSIDYVVTKIPRFNFEKFAGANDRLTTQMKSVGEVMAIGRTQQESLQKALRGLEVGATGFDPKVSLDDPEALTKIRRELKDAGADRIWYIADAFRAGLSVDGVFNLTNIDRWFLVQIEELVRLEEKVAEVGITGLNADFLRQLKRKGFADARLAKLAGVREAEIRKLRDQYDLHPVYKRVDTCAAEFATDTAYMYSTYEEECEANPSTDREKIMVLGGGPNRIGQGIEFDYCCVHASLALREDGYETIMVNCNPETVSTDYDTSDRLYFEPVTLEDVLEIVRIEKPKGVIVQYGGQTPLKLARALEAAGVPVIGTSPDAIDRAEDRERFQHAVERLKLKQPANATVTAIEMAVEKAKEIGYPLVVRPSYVLGGRAMEIVYDEADLRRYFQTAVSVSNDAPVLLDHFLDDAVEVDVDAICDGEMVLIGGIMEHIEQAGVHSGDSACSLPAYTLSQEIQDVMRQQVQKLAFELQVRGLMNVQFAVKNNEVYLIEVNPRAARTVPFVSKATGVPLAKVAARVMAGKSLAEQGVTKEVIPPYYSVKEVVLPFNKFPGVDPLLGPEMRSTGEVMGVGRTFAEAFAKAQLGSNSTMKKHGRALLSVREGDKERVVDLAAKLLKQGFELDATHGTAIVLGEAGINPRLVNKVHEGRPHIQDRIKNGEYTYIINTTSGRRAIEDSRVIRRSALQYKVHYDTTLNGGFATAMALNADATEKVISVQEMHAQIK | 5.02 ± 0.092 | 4.45 ± 0.4 | 4.581 ± 0.016 | 5 ± 0.33 | 4.81 ± 0.32 | 3.11 ± 0.25 | 5.75 ± 0.28 | 10.6 ± 0.13 | 4.65 ± 0.3 | 8.22 ± 0.41 | 6.2 ± 0.28 | 12.6 ± 0.28 |
| MPLPDFHVSEPFTLGIELEMQVVNPPGYDLSQDSSMLIDAVKNKITAGEVKHDITESMLELATDVCRDINQAAGQFSAMQKVVLQAATDHHLEICGGGTHPFQKWQRQEVCDNERYQRTLENFGYLIQQATVFGQHVHVGCASGDDAIYLLHGLSRFVPHFIALSAASPYMQGTDTRFASSRPNIFSAFPDNGPMPWVSNWQQFEALFRCLSYTTMIDSIKDLHWDIRPSPHFGTVEVRVMDTPLTLSHAVNMAGLIQATAHWLLTERPFKHQEKDYLLYKFNRFQACRYGLEGVITDPHTGDRRPLTEDTLRLLEKIAPSAHKIGASSAIEALHRQVVSGLNEAQLMRDFVADGGSLIGLVKKHCEIWAGD | 4.72 ± 0.45 | 4.3 ± 0.47 | 4.35 ± 0.24 | 4.85 ± 0.29 | 4.73 | – | – | 9.5 ± 0.29 | 4.59 | 9.74 | 6.17 ± 1 | 11.6 ± 0.85 |
| MPNITWCDLPEDVSLWPGLPLSLSGDEVMPLDYHAGRSGWLLYGRGLDKQRLTQYQSKLGAAMVIVAAWCVEDYQVIRLAGSLTARATRLAHEAQLDVAPLGKIPHLRTPGLLVMDMDSTAIQIECIDEIAKLAGTGEMVAEVTERAMRGELDFTASLRSRVATLKGADANILQQVRENLPLMPGLTQLVLKLETLGWKVAIASGGFTFFAEYLRDKLRLTAVVANELEIMDGKFTGNVIGDIVDAQYKAKTLTRLAQEYEIPLAQTVAIGDGANDLPMIKAAGLGIAYHAKPKVNEKAEVTIRHADLMGVFCILSGSLNQK [P0AGB0] | 5.32 ± 0.097 | 5.09 ± 0.32 | 5.09 ± 0.31 | 5.43 ± 0.31 | 5.08 ± 0.26 | 3.01 ± 0.1 | 5.07 ± 0.26 | 10.3 ± 0.85 | 4.819 ± 0.032 | 8.79 ± 0.6 | 5.83 ± 0.23 | 11.5 ± 0.32 |
| MPNIVLSRIDERLIHGQVGVQWVGFAGANLVLVANDEVAEDPVQQNLMEMVLAEGIAVRFWTLQKVIDNIHRAADRQKILLVCKTPADFLTLVKGGVPVNRINVGNMHYANGKQQIAKTVSVDAGDIAAFNDLKTAGVECFVQGVPTEPAVDLFKLL | – | – | – | – | – | 3.26 | 5.07 ± 0.6 | 8.17 | – | – | – | – |
| MPQHDQLHRYLFENFAVRGELVTVSETLQQILENHDYPQPVKNVLAELLVATSLLTATLKFDGDITVQLQGDGPMNLAVINGNNNQQMRGVARVQGEIPENADLKTLVGNGYVVITITPSEGERYQGVVGLEGDTLAACLEDYFMRSEQLPTRLFIRTGDVDGKPAAGGMLLQVMPAQNAQQDDFDHLATLTETIKTEELLTLPANEVLWRLYHEEEVTVYDPQDVEFKCTCSRERCADALKTLPDEEVDSILAEDGEIDMHCDYCGNHYLFNAMDIAEIRNNASPADPQVH [P0A6Y5] | 4.77 ± 0.4 | 4.06 ± 0.058 | 4.35 ± 0.87 | 4.6 ± 0.6 | 3.55 ± 0.12 | 1.924 ± 0.015 | 3.85 ± 0.11 | 7.32 ± 0.54 | 4.02 ± 0.13 | 6.02 ± 0.22 | 4.51 ± 0.073 | 9.18 ± 2 |
| MPQISRYSDEQVEQLLAELLNVLEKHKAPTDLSLMVLGNMVTNLINTSIAPAQRQAIANSFARALQSSINEDKAH [P0AD24] | 6.24 ± 0.65 | 4.76 | 5.69 ± 0.2 | 4.63 ± 1.3 | 4.16 ± 1.4 | 2.99 ± 0.041 | 5.16 ± 0.18 | 10.1 ± 0.73 | 3.54 ± 0.42 | 9.19 | 5.83 | 10.4 |
| MPQQIELRNIALQAAQPLVHGVSLTLQRGRVLALVGGSGSGKSLTCAATLGILPAGVRQTAGEILADGKPVSPCALRGIKIATIMQNPRSAFNPLHTMHTHARETCLALGKPADDATLTAAIEAVGLENAARVLKLYPFEMSGGMLQRMMIAMAVLCESPFIIADEPTTDLDVVAQARILDLLESIMQKQAPGMLLVTHDMGVVARLADDVAVMSDGKIVEQGDVETLFNAPKHTVTRSLVSAHLALYGMELAS | 4.47 | – | – | – | – | – | – | – | – | – | – | – |
